Data: patent US20250042977A1 (WUHAN BANKE BIOTECHNOLOGY, published 2025)

What was measured:
bovine serum albumin = target: T1, bovine serum albumin (bovine, UniProt P02769 25-607); test: ELISA, BSA as negative control, detection with HRP-Anti-FLAG
T1 construct: Negative control; also called BSA
Method: recF (4 μg/mL) was coated on an ELISA plate and incubated overnight at 4° C. and then blocked with PBS+3% milk at 37° C. for 1 h. […] The plate was then washed four times with PBST (PBS+0.05% Tween 20) and then incubated with HRP-Anti-FLAG monoclonal antibody at 37° C. for 1 h. The ABTS was added for color development. Bovine serum albumin (BSA) was used as a negative control.

[1] = target: F protein of respiratory syncytial virus type A (RSV A) (human respiratory syncytial virus type A); test: cell-based or functional assay
[2] = target: F protein of respiratory syncytial virus type B (RSV B) (human respiratory syncytial virus type B); test: cell-based or functional assay
[3] = target: T2, recombinant human respiratory syncytial virus envelope protein F fused to the Fc fragment of antibody IgG1 … (human respiratory syncytial virus, UniProt P03420 26-524; P01857 99-330 = IgG part); test: ELISA, recF (4 ug/mL) coated, detection with HRP-Anti-FLAG
T2 construct: also called recombinant F protein; RSV F protein
T2 sequence (P03420 26-524, tags or fused parts left off): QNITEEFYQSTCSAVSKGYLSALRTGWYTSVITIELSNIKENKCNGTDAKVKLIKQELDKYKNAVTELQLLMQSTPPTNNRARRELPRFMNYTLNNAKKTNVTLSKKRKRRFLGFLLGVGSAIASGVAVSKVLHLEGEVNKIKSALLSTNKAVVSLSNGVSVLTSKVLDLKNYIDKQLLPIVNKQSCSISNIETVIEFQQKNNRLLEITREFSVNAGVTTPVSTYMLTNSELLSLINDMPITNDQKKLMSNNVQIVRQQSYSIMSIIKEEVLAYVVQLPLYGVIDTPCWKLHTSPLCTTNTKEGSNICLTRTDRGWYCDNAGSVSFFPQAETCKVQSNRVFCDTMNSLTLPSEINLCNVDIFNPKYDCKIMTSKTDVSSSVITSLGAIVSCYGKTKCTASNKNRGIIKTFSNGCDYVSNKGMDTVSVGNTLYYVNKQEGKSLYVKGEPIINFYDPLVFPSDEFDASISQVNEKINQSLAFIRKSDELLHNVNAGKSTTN

T1 sequence (P02769 25-607 limits assumed): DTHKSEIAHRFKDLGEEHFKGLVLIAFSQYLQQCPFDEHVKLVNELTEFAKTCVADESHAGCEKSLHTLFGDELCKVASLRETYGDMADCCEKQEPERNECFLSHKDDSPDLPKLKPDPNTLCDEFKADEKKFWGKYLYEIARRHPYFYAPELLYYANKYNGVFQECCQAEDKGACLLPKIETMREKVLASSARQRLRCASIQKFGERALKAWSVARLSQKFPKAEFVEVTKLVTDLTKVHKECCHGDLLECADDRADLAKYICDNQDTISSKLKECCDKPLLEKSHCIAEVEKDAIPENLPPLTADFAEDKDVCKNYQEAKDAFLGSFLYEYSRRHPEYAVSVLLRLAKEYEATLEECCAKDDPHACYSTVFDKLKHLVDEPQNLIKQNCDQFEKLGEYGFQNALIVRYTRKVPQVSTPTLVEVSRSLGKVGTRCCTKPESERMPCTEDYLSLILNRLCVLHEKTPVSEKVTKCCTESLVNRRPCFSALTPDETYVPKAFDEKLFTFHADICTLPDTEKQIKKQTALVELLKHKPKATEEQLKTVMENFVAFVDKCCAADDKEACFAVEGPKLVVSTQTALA

B1: C-based single domain antibody BBT-VC001-1 (designed binder)
chain: PSVLCLPPKPKDTLVISRTPEVTCVVSGYNPYDFPIIKFKWYVDGVEVDNAKVKPRDENSYNTDSVVSKLTVLHQDWLNGKEYKCKVSAREGGSSGEWYYDLWGPIECTISKAK
notes: expressed in E. coli HB2151; also called C-type nanobody BBT-VC001-1; BBC-VC001-1; not shown: C-terminal 6x His tag and FLAG tag
Bovine serum albumin
  binding result: no binding
[1]
  IC50 for inhibition of respiratory syncytial virus type A (infection of Hep-2 cells): 8.33 ng/mL
[2]
  IC50 for inhibition of respiratory syncytial virus type B (infection of Hep-2 cells): 8.42 ng/mL
[3]
  EC50: 28 nM
